This note sets out measurements from patent US10143747B2, “Breast cancer therapeutics” (IMBA—INSTITUT FÜR MOLEKULARE BIOTECHNOLOGIE GMBH, priority 2010, dated 2018).

One experiment has as its system RANKL. Description: RANKL protein in mammary gland / isolated mammary epithelial cells (immunostaining, Western blot) after MPA implantation. The format is in vivo, mouse. The protocol: a,b, Induction of RANKL expression by the progesterone-derivative MPA. Nulliparous wild type females were s.c. implanted with slow-release MPA pellets or treated with surgery sham. a, RANKL mRNA was determined in purified mammary epithelial cells by qRT-PCR three days after implantation. Data are shown as fold change compared to sham treatment (+/−sem) (n=3). b, In situ […] immunostaining of progesterone receptor (PR, red) and RANKL (green) in mammary epithelial cells after 3d MPA treatment. c, Induction of soluble RANKL protein assayed on isolated mammary gland epithelial cells from control, but not in prolactin receptor mutant (PRL-R KO) females on day 3 after s.c. MPA implantation. Mammary glands from sham operated control litter-mates and PRL-R KO females are shown as controls. d, Epithelial proliferation in mammary glands of control littermates and RANK^Δmam females 3 days after sham treatment and MPA implantation. Proliferation was determined by in situ Ki67 immunostaining. e,f, Marked increase of the stem cell-enriched CD24^+CD49^high population (MaSC) in MPA-treated mammary glands in control but not in RANK^Δmam mammary glands. e, Representative FACS profiles showing CD24 and CD49 expression of lineage negative (CD31^− (endothelial cells) CD45^− (hematopoietic cells) […] (erythroid cells)) of mammary MaSCs from MPA- or sham-treated 8-week old virgin females. f, Quantification of MaSC-enriched CD24^+CD49^high population from mammary glands of MPA- or sham-treated virgin RANK^Δmam and littermate control females. For all MaSCs experiments mice were treated with MPA for 3 days. n=4 per group+/−sem. *P<0.05; ***P<0.001 (Student's t-test).
a-d, Induction of RANKL expression by the progesterone-derivative MPA. Nulliparous wild type females were s.c. implanted with slow-release MPA pellets or treated with surgery sham. a, Expression of transmembrane (tm) and soluble (s) RANKL protein was assayed on isolated mammary gland epithelial cells by Western blot 3 and 6 days after MPA pellet implantation or sham surgery. β-actin is shown as a loading control. Recombinant murine sRANKL and recombinant human tmRANKL protein are shown for molecular size comparison in the right panels. […] Numbers indicate amino acid residues. c, Expression of total (t) RANKL, RANKL1, RANKL2, and RANKL3 mRNA in purified mammary epithelial cells after three days MPA treatment. β-actin is shown as a control. d, Representative agarose gel of RT-PCR products as in c. e, mRNA expression of various proteases known to shed RANKL from the surface of cells. mRNA was determined in purified mammary epithelial cells by qRT-PCR three days after MPA implantation. […]
On the technique in general: Immunoblotting shows a protein as a band on a membrane.

In experiment [1] the test system is primary mouse mammary epithelial cells. Description: DNA damage responses (cell cycle arrest, apoptosis) in primary mouse mammary epithelial cells. The conditions noted are these: RANKL 1 μg/ml. The format is cell-based. The method, then: a, Western Blot analysis for γH2AX, phosphorylated (P) Chk1, total Chk1, p53 and β-actin in isolated primary mouse mammary gland epithelial cells in response to γ-irradiation (2 Gray) in the presence (1 μg/ml) or absence of RANKL stimulation. b,c, FACS analysis of propidium iodide (PI) stained b, mammary epithelial cells and c, SKBR3 human breast cancer cells after γ-irradiation (2 Gray) in the absence or presence (1 μg/ml) of RANKL. Data are representative of at least 3 experiments. Apoptotic cells with a DNA content <2n appear in the sub-G1 region. Percent of cells in sub-G1 (M1), G1-phase (M2), S/G2/M-phase (M3) as well as polyploid cells with a DNA content >4n are given for the indicated time points.
a,b, FACS analysis of a, mammary epithelial cells and b, SKBR3 human breast cancer cells incubated with the genotoxic agent doxorubicin (Dox, 1 μM) in the presence (1 μg/ml) or absence of RANKL. Data are representative of at least 3 experiments. Percent of cells in sub-G1 (M1), G1-phase (M2), S/G2/M-phase (M3) as well as polyploid cells with a DNA content >4n are given for 24 and 36 hours after doxorubicin treatment. c, mRNA expression of pro-apoptotic genes Bim, Puma, and Noxa 6 hours after γ-irradiation (2 Gray) in the presence (1 μg/ml) or absence of RANKL stimulation. Data are shown as fold change compared to control (+/−sem). n=3). *P<0.05; **P<0.005 (Student's t-test).
For measurement of cell cycle arrest and apoptosis primary mouse mammary epithelial cells and SKBR3 human breast cancer cells were seeded at a cell-density of 100000 cells/well in a 6-well plate and allowed to grow for 24 hours. Cells where then treated with doxorubicin (1 μM) or γ-irradiation (2 Gray) in the absence or presence of recombinant RANKL (1 μg/ml). Cell cycle arrest and numbers of dead cells were determined using propidium iodine staining. To determine in vivo mammary gland epithelial cell death, control and RANK^Δmam littermate females were γ-irradiated with a total dose of 5 Gray (Gy). Six hours later, mammary glands were isolated and immunostained for active Caspase 3 (Cell Signaling) indicative of apoptosis.

In the case of `CC(=O)O[C@]1(C(C)=O)CC[C@H]2[C@@H]3C[C@H](C)C4=CC(=O)CC[C@]4(C)[C@H]3CC[C@@]21C` [MPA, medroxyprogesterone acetate], in the experiment on RANKL (3 and 6 days after MPA pellet implantation), the “19 kDa soluble form of RANKL, Western blotting of isolated mammary epithelial cells” value is reported as “induction of the 19 kDa soluble form of RANKL”. The “RANKL protein in the mammary gland, immunohistochemistry” value with RANKL (3 d MPA treatment) is on record as “induction of RANKL protein in the mammary gland”. Further, the RANKL protein production result in the experiment with RANKL (female control mice, day 3 after s.c. MPA implantation) is “triggers substantial production of RANKL protein”. Besides, the RANKL protein induction entry with RANKL (prolactin receptor mutants (PRL-R KO), day 3 after s.c. MPA implantation) is “failed to detect RANKL induction”.

B1: RANKL: recombinant RANKL protein, ligand of RANK, used as stimulus (1 μg/ml or 1 μg i.p.) (protein, UniProt O35235 139-316, looked up)
Tumor necrosis factor ligand …: FSGAPAMMEGSWLDVAQRGKPEAQPFAHLTINAASIPSGSHKVTLSSWYHDRGWAKISNMTLSNGKLRVNQDGFYYLYANICFRHHETSGSVPTDYLQLMVYVVKTSIKIPSSHNLMKGGSTKNWSGNSEFHFYSINVGGFFKLRAGEEISIQVSNPSLLDPDQDATYFGAFKVQDID
Consider B1, for which the “γ-irradiation-induced upregulation of proapoptotic Bim, Puma and Noxa mRNA” value in experiment [1] (6 hours after γ-irradiation 2 Gray, cell type not stated) is listed as “did not occur in the presence of RANKL”. Also, in experiment [1] (doxorubicin 1 μM), the “early cell cycle arrest after DNA damage” value is listed as “did not alter the early cell cycle arrest” and the “protection from cell death” value is given as “marked protection from cell death”. In experiment [1] (γ-irradiation 2 Gray), the “early cell cycle arrest after DNA damage” value was “did not alter the early cell cycle arrest”; the “induction of γH2AX and p53, activation of Chk1 (DNA damage response markers)” value is “did not alter induction of γH2AX and p53 or activation of Chk1”; the “protection from cell death” value is reported as “marked protection from cell death”.
